In publication doi:10.1101/2023.08.11.549911:
Values belong to the substance of their own block, whether it stands above or below them.

What was measured:
[1] = target: LRRK2 G2019S, full-length, N-terminal Strep-FLAG (SF) tagged (human) (UniProt Q5S007); experiment: native gel or EMSA; conditions: remark: other sources report otherwise
[2] = target: LRRK2 R1441G, full-length, N-terminal Strep-FLAG (SF) tagged (human) (UniProt Q5S007); experiment: native gel or EMSA
[3] = target: Leucine-rich repeat kinase 2 (LRRK2), full-length wild type, N-terminal Strep-FLAG (SF) tagged (human) (UniProt Q5S007); experiment: mass photometry; conditions: remark: other sources report otherwise

stoichiometry N [1]: 2
Substance: LRRK2 G2019S, full-length, N-terminal Strep-FLAG (SF) tagged, Q5S007 1-2527

stoichiometry N [2]: 2
Substance: LRRK2 R1441G, full-length, N-terminal Strep-FLAG (SF) tagged, Q5S007 1-2527

Kd [3]: 200 nM
Substance: Leucine-rich repeat kinase 2 (LRRK2), full-length wild type, N-terminal Strep-FLAG (SF) tagged, Q5S007 1-2527
